According to US20070066809A1:
Where no end group is shown, it is not given here. [ ]: non-standard residue; d: D form. pGlu = O=C1CC[C@@H](C(=O)O)N1

B1: human gastrin-34 (G34), amidated (peptide)
peptide: [pGlu]LGPQGPPHLVADPSKKEGPWLEEEEEAYGWMDF-NH2
SMILES: CSCC[C@H](NC(=O)[C@H](Cc1c[nH]c2ccccc12)NC(=O)CNC(=O)[C@H](Cc1ccc(O)cc1)NC(=O)[C@H](C)NC(=O)[C@H](CCC(=O)O)NC(=O)[C@H](CCC(=O)O)NC(=O)[C@H](CCC(=O)O)NC(=O)[C@H](CCC(=O)O)NC(=O)[C@H](CCC(=O)O)NC(=O)[C@H](CC(C)C)NC(=O)[C@H](Cc1c[nH]c2ccccc12)NC(=O)[C@@H]1CCCN1C(=O)CNC(=O)[C@H](CCC(=O)O)NC(=O)[C@H](CCCCN)NC(=O)[C@H](CCCCN)NC(=O)[C@H](CO)NC(=O)[C@@H]1CCCN1C(=O)[C@H](CC(=O)O)NC(=O)[C@H](C)NC(=O)[C@@H](NC(=O)[C@H](CC(C)C)NC(=O)[C@H](Cc1c[nH]cn1)NC(=O)[C@@H]1CCCN1C(=O)[C@@H]1CCCN1C(=O)CNC(=O)[C@H](CCC(N)=O)NC(=O)[C@@H]1CCCN1C(=O)CNC(=O)[C@H](CC(C)C)NC(=O)[C@@H]1CCC(=O)N1)C(C)C)C(=O)N[C@@H](CC(=O)O)C(=O)N[C@@H](Cc1ccccc1)C(N)=O

Key:
MAb 400-4 = test: MAb inhibition ELISA; soluble inhibitor of MAb binding to coated hG17(1-9)-“Ala”-BSA
MAb 400-2 = test: as above
MAb 400-1 = test: as above
MAb 400-3 = test: as above
MAb 458-2 = test: MAb inhibition ELISA; soluble inhibitor of MAb binding to the coated C-terminal target peptide-BSA
MAb 458-4 = test: as above
MAb 458-1 = test: as above
MAb 458-3 = test: as above
MAb 458-5 = test: as above
MAb 445-2 = test: MAb inhibition ELISA; soluble inhibitor of MAb binding to coated hG34(16-34)-Gly 35-BSA
MAb 445-1 = test: as above
MAb 401-2 = test: MAb inhibition ELISA; soluble inhibitor of MAb 401-2 binding to the coated G34 N-terminal target antigen

IC50 (MAb 400-4) | IC50 (MAb 400-2) | IC50 (MAb 400-1) | IC50 (MAb 400-3) | % Inhibition at 10 nmol/ml (250 pmoles/well) (MAb 458-2) | % Inhibition at 10 nmol/ml (250 pmoles/well) (MAb 458-4) | % Inhibition at 10 nmol/ml (250 pmoles/well) (MAb 458-1) | % Inhibition at 10 nmol/ml (250 pmoles/well) (MAb 458-3) | % Inhibition at 10 nmol/ml (250 pmoles/well) (MAb 458-5) | IC50 (MAb 445-2) | IC50 (MAb 445-1) | IC50 (MAb 401-2) | Binder
620 nM | 85 nM | 2030 nM | 1080 nM | 86% | 88.4% | 94.3% | 92.4% | 91.9% |  |  |  | EGPWLEEEEEAYGWMDF (N-terminal pyroglutamic acid (pGlu); C-terminal Phe-NH2 (amide)) [human gastrin-17 (G17), mature amidated form]
 |  |  |  |  |  |  | 1.2% |  |  |  |  | [pGlu]GPWLEEEE (ends and bridges not checked) [hG17(1-9) N terminus peptide]
 |  |  |  |  |  |  |  |  | 13000 nM | 4000 nM |  | CPPPPSSYGWMDFG [hG17 (12-17)-Gly18 peptide (immunogen peptide …)]
699 nM | 77 nM | 1790 nM | 1390 nM |  |  | 2.1% |  |  | 5000 nM | 700 nM |  | [pGlu]GPWLEEEEEAYGWMDFG [human glycine-extended gastrin-17 (G17-Gly)]
1690 nM | 86 nM | 1650 nM | 120 nM |  |  |  |  |  |  |  |  | EGPWLEKEEAAYGWMDF (ends and bridges not checked) [equine G17]
 |  |  |  | 84.5% | 86.7% | 93.5% | 90.7% | 91.5% |  |  | 700 nM | B1
 |  |  |  | 84.8% | 83.4% | 93.8% | 84.8% | 92% |  |  |  | DYMGWMDF-NH2 [CCK (26-33) unsulfated]
